Test: label from the status in PepcDB records
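Note: failed if final PepcDB status was selected cloned or expressed and not failed if soluble or beyond.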

## MVSDADASTSSSSIDIMPSANIQNDVPEPSVHTSHRRTRKPAYLQDYYCHSVASLTIHDISQFLSYEKVSPLYHSFLVCIAKAKEPSTYNEAKEFLVWCGAMDDEIGAMETTHTWEICTLPPNKKPIGCKWVYKIKYNSDGTIERYKARLVAKGYTQQEGIDFIETFSPVCKLTSVKLILAISAIYNFTLHQLDISNAFLNGDLDEEIYMKLPPGYAARQGDSLPPNAVCYLKKSIYGLKQASRQWFLKFSVTLIGFGFVQSHSDHTYFLKITATLFLCVLVYVDDIIICSNNDAAVDELKSQLKSCFKLRDLGPLKYFLGLEIARSAAGINICQRKYALDLLDETGLLGCKPSSVPMDPSVTFSAHSGGDFVDAKAYRRLIGRLMYLQITRLDISFAVNKLSQFSEAPRLAHQQAVMKILHYIKGTVGQGLFYSSQAEMQLQVFSDASFQSCKDTRRSTNGYCMFLGTSLISWKSKKQQVVSKSSAEAEYRALSFATDEMMWLAQFFRELQLPLSKPTLLFCDNTAAIHIATNAVFHERTKHIESDCHSVRERSVYQATLSYSFQAYDEQDGFTEYLSPILRGTIMYIVSMFGLAGLEALICFIFLFLFSFLTSFKASAQNPFYLNHDCPNRTTYSSNSTYSTNLKTLLSSFASRNASYSTGFQNIRAGQTPDRVTGLFLCRGDLSPEVCSNCVAFSVNESLTRCPNQREAVFYYEECILRYSHKNFLSTVTYEGELIMRNPNNISSIQNQRDQFIDLVQSNMNQAANEAANSSRKFSTIKTELTSLQTLYGLVQCTPDLARQDCFSCLTSSINRMMPLFRIGARQFWPSCNSRYELYAFYNETAIGTPSPPPLFPGSTPPLTSPSIPGKSGNSTVLVVAIVVLAVLLFIALVGYCFLAQRTKKTFDTASASEVGDDMATADSLQLDYRTIQTATNDFAESNKIGRGGFGEVYKGTFSNGKEVAVKRLSKNSRQGEAEFKTEVVVVAKLQHRNLVRLLGFSLQGEERILVYEYMPNKSLDCLLFDPTKQTQLDWMQRYNIIGGIARGILYLHQDSRLTIIHRDLKASNILLDADINPKIADFGMARIFGLDQTQDNTSRIVGTYGYMAPEYAMHGQFSMKSDVYSFGVLVLEIISGRKNSSFDESDGAQDLLTHTWRLWTNRTALDLVDPLIANNCQNSEVVRCIHIGLLCVQEDPAKRPTISTVFMMLTSNTVTLPVPRQPGFFIQSSPVKDPTDSDQSTTTKSTPASIDDELITDLYPR
  protein production: failed

## MPDKFNMQSPPFNRLTAEQQHQLRSALDVAYFRQRDVLIDAQHPVTHLHILIKGTVEERSPDGKEVFAHYANDDLFDVRAMFEELSKHQYMALEDTLSYLLPKSIFLQLYEQNGEFAAYFDNNLAKRQELIEAAAQQKNIAEFILTKVDRSIYHPPFILSPEQPIHSVTQQLKERGIDAALVELHPSDPRLAHNHAHPYAIVTRTNMLHAVMLEGRPLDTPVGEIATFPVLHVDEGDFLFNAMVMMTRQRIKRVMVCLGNQAVGLLSLIQILSAFSTHSHVLTLAIARAASIDELALAANKQRELVESLMSRGVRTRFVMELIAAVNEQIIEKAFELVVPPALHDQCCLVVLGSEGRGEQILKTDQDNALIIQDGLEWHQCQPIMETLTHTLLQLGYPLCPGKVMVNNPKWVRSQSDWKRTLTDWVKAARPEQVMDIAIFADAHAVAGNRALLAPVKAHLQHLMAGQELILAEFTRPALNFSVPLTLFGNVKSSKQGIDIKQGGIFPIVHGVRALSLEHAIDANNTFDRIEALVKKRVLEQETGDNLSEAFKLFLKLRLAQQLGNQHSTNQLDFKQLDRTERDLLRHSLHVVKKFKQWLGYHYQIRD
  protein production: failed

## MENKRAIIAVVLSFIVLVGWGYLSEYMGWTPKSVPATEQKTAASAPAPSVVTSAPEAVTPAPAFSPSTGHEVTVTTPLYKAVLHSGGGVLRQFMLSRYHMGIDRDAAPVNLIESSAIRVAPLGLLVNGQPSWNTGQWAFEGGDLNLADGQTGTLRFVGSVDGLRVVRELEFHADSYLVTEKLHLAPEGDAPRTARVGFTLGTTSLTPGESQYNLTRVAWFADGSFSEKSSTGDLEKGVLIDGSIDWAGVMSNYFLAAVAPKDTRAVLKGKLEGGVYRVAVERPDQMVNPGNSDVIVCNYWFGPKERDLLNAAPNNLGKAIDLGWFGFIARPLVTLLDFFYKYVGNYGTAIILLTILIKLVFWPLSHKSYKSMEQMKKLQPMLAKVREKHADDREKMNEEMMRLYKTYKVNPAGGCLPMLVQIPVFFGLYQALLNAIELRHAPFIAHVPFTDIVWLADLSAKDPFYVTPLVMGATMFLQQKLTPPAGDPTQAKVMMFMPVVFTFLFLNFPSGLVVYWLCNNVLSIAQQWWILRKA
  protein production: failed

## MQEKGFKEGVKASLPTALGYVSIGLACGVVGANSGLTPFQMGLMSLLVYAGSAQFVMCAMFVAGADLFSIVMTVFLINLRNFLMSLHATTIFTKSSLWQTICIGTLITDESYGVLLNEHVHHKNISTAWMHGNNITGYIAWLFAVILGTALGSVIPNPETLGLDFALIAMFVSIFESQLAAMMQFVKLKKIGLILLAVTLSYFLLVIVISESLAVLLSTLIGCFAGVLLDVR
  protein production: failed

## MKEGKHFVLVHGACHGGWSWYKLKPLLEAAGHKVTALDLAASGTDLRKIEELRTLYDYTLPLMELMESLSADEKVILVGHSLGGMNLGLAMEKYPQKIYAAVFLAAFMPDSVHNSSFVLEQYNERTPAENWLDTQFLPYGSPEEPLTSMFFGPKFLAHKLYQLCSPEDLALASSLVRPSSLFMEDLSKAKYFTDERFGSVKRVYIVCTEDKGIPEEFQRWQIDNIGVTEAIEIKGADHMAMLCEPQKLCASLLEIAHKYNLEHHHHHH
  protein production: not failed

## MQNPIDSLLYVKISAEQAGKIFENLESSIPLPIQLSEPGQKEDFKAENIKPEMILAGMLTVFAYDRENPHITYYRKIFNLLRPDIRKEMTEAAIIKIKNNDFDMAEEILLSLEGLNPDDGITKLNLALLMEERSQFCEMRELFEDALSFNKRAEELYSELILFEPPLPGVFFNAAYFFIKQKNYIKAKSLLKTYLEIENDSSETAEFRKAKASELLKTISEQALDDELFQKAYKCIDLGEEEKAAESIKLFLRKNPKVWNAWFLLGWALRRMGRWEDARSSFLKTIELLENSEISDKEPLCDVYNELAICLMELELFDEAEKHLINALSLDSENIKIISNLGTLALKQGKQEEAEAFFRTVLEINPDDKIALNVLGKPRA
  protein production: failed

## TPVRIESFDNSNIMGTSPVSAMVVFVNGKPSKKDYRKYKIKTVVGPDDYASMREVIRRRYGRVQREALTPPDLIVIDGGQGQVNIAKQVIQEELGLDIPIAGLQKNDKHQTHELLFGDPLEVVDLSRNSQEFFLLQRIQDEVHRFAITFHRQLRSKNSFSSQLDGIDG
  protein production: failed

## MTISQNRNGDDVAVHKFGLFVAKHRKLVLAIAILLLIPSIYGFVTTKVNYDILTYLPKDLESVKGQDILDKEFKQAALSMLIVKGDMNISNIQKLKSKISQVDGVEKVIWIDDFLDPTIPKEMLPDVLKNTFYSKDSTLLLIQFKNSASSLETQNAISKIRKIATAQCFLSGMSAIIKDTRDLSDRETPLYVLVAVVFIFILLLLTMESPIVPILFLTSIGMAIIYNLGTNKFLGEISYITKSLAAVLQLGVTMDFSIFLMHRYDEERKRFDSKEEAMAEAISKTLVAILSSAATAIAGFLALCVMRLRIGADIGIVMAKGVFLGVIGTVTILPALILTFDRAIHKFRLKNILPTFSKTAEFATKYHVVLFVVFLLAFIPAIYGRVNIKEYYNLIDSLPKTIKSVQATDLLKKEYNMTTTHMVLVDRSVPKYQIKNMCEEIKRVKGVEKVLAFDDILGPAIPDEFIPSSVKENFEKGNFKLIMINSIYKSATSEENAQIERIQQIVKKYSKRSYVTGEGVLTKDLVEMADTDLKRVDFISILAIFMIILITFKSISIPLILVLAIELAIFINLAIPYYTNVTVPFIASIVLGTIQLGSAINYAILMTTRFREEIQKGHDRFEAIKIAVKTSSRSVVTSALAFAFSTLAVALIAKIDMIRSLCEMLSRGAVISMIVILFVLPSLLLLFEGAIAKTTFGWRSKEASVKPSEEYETL
  protein production: failed

## MSKLTLGSYPHMLGFEQLERLLERSAKSGNEGYPPYNIEQTSETSYRITLAVAGFAEADLSITVEDRQLVIRGRQSDDSEGRVFLHRGIAARQFQRMFVLAEGVEVGEAVMENGLLHVDLSRAVPQSVVQTINIRKG
  protein production: failed

## MGHHHHHHSHEELPPTTELEEGLRNGVYLAKLAKFFAPKMVSEKKIYDVEQTRYKKSGLHFRHTDNTVQWLRAMESIGLPKIFYPETTDVYDRKNIPRMIYCIHALSLYLFKLGIAPQIQDLLGKVDFTEEEISNMRKELEKYGIQMPSFSKIGGILANELS
  protein production: failed

## MLTLPAPEPIAHMEVTSYRAGVQGGSGLWRGQAVYVKTLVSDDPDRVAMFHHEGAVAARLSHPLVTPLLAHTPNQLIFPLLRGGTLRDLVRCGPLDADAATQVTWGVLQAVSHLHGRGVTHHDLKPENVLLIGGQSQVEAVRLIDFGMSHAAGLPLDIHSGTRMGTPQFMAPEQFQGVRGDPRSDLYSVGVLLFDCLAGHPPYADALGWLVGISEERAAAPGPSALHPLMLRAIQRDRDSRPQSAAEMLAALADARQQLGLPELEHIAPEGQTAGENA
  protein production: failed

## MSLELPAEVQEMPIYREWISGILAGKIASPFWEMAQPQKNQHCLDIGCGVSFLIYPWRDWQAFFYGQDVSNVARDTLNSRGSQLNSKLFKGVELGAAHQLKYTLSYFDLAIATGFSCYFPLEYWTSVLQAVKRVLKPDGHFVFDILNAAHPQAEDWAVLETYLGAEVFLEPVTEWEKIINAAGAKVVGRQPGEFFDLYKLRLEHHHHHH
  protein production: not failed

## MFMFRNCAVLLVIGSICCFIYGLFRLHVEVEPNACRMTYMFGEPMFAKVGVRDGDQYPNYALYYYYEGLRQPLDPLKRRMTGAPVIFVPGNAGSYKQVRSLASVALRKAMSNDAGIHLDYYTIDYDEELSALYGGYLHRQQSYLKLCIRTILSIYEGRTEQPSIVLIGHSMGGKLAQSVLVDPAIGQHINTIISISTPLDQPVLNLDTQLEEFYDQTDAVLSKLRTATVPTMTTNVCDSLHQRPPSVQRMASQDSSARLDNVLLISTGGGNRDLLVRPGLTSSRFNDLHAMTSAIPKVSLSCDHLSAVWCLQFMQAINRFLFSVAYVREDRSSIAFGTNKQRNLQTALSTFVKPRRRQQNTVRFGAAGNWHEERRLVINKYFTNGLKGTFFDLIGLQRQERYRKAAIEALNVDDEDWLFGCSAEDNNKTGQLYCEKATSLMHLVQWLPNEDREPRSIALLDLHNLRKTYVHWTHLLVRLPPSAKRIGYNLDIYDPKERVTDIKMPRWYTMAKLPLINETLQGTLHHRVRISEMVDPYQSIRVIVEPLQCINPEYRVTARICVPWAAGFERFQTLKSFDQKPQLYVNVPTLVPRHYNTTLNPVTLELYLDPTCRYRISYEYSYSSALSRLVLEFYGWLPAHLVCVLLIVLRKQVETFYDVGTFRSLRPYVGYLQYTSLYIVTACRLLKKLIISSRVFPEPEPLDYSINVSIVIHCAAIALSLLATLGTWLALTLYGNAFYRLALRITRLSQATSNVMISIMTHLPITYGILTIATAMGTCSGVGLLLAFVFYFLMLSNAYKDYLEDFLWQKAANLVRGKPSAVTEQEDATEEQNEEQNALKQNDEQKQQQQEEEEPEACVGLQNFSFHVTLLLMLFVQLLLNAPSSLAWLRSRRHGINLPDPSLYPSIVVLASLSLLLQLRAPQKCQGYWMLSIAFYILAGVVLLYCQAAIYRLTYVIAGAFALLSAHQSLWILWGRVSRV
  protein production: failed

## SLETVQLRNPPRRQLKKLDEDSLTKQPEEVFDVLEKLGEGSYGSVYKAIHKETGQIVAIKQVPVESDLQEIIKEISIMQQCDSPHVVKYYGSYFKNTDLWIVMEYCGAGSVSDIIRLRNKTLTEDEIATILQSTLKGLEYLHFMRKIHRDIKAGNILLNTEGHAKLADFGVAGQLTDTMAKRNTVIGTPFWMAPEVIQEIGYNCVADIWSLGITAIEMAEGKPPYADIHPMRAIFMIPTNPPPTFRKPELWSDNFTDFVKQCLVKSPEQRATATQLLQHPFVRSAKGVSILRDLINEAMDVKLKRQESQQREEG
  protein production: not failed

## ARRASAGELDAAVMHELAPLKMERAVFQTRITEGEPGPEGRDAVAFEVATNPGAPAGPLNRIASGGELSRFLLALKVCLRGDDGGKTMIFDEIDRGVGGATADAVGRRLEALAGAGQVLVVTHSPQVAARGVHHWRV
  protein production: failed

Source: a protein production outcome set (Wang et al. 2014)
